Series [1] addresses T1, human thrombin (Homo sapiens, UniProt P00734;P00734 328-363;364-622). In words: CD; 0.5 uM thrombin, 5 uM DNA; no significant spectral change; Binding Buffer: 50 mM Tris-HCl, 100 mM NaCl, 1 mM MgCl2, 1 M DTT (so in the source), pH not stated; ITC and CD at 25 C.
In series [2] the target is T1, human thrombin. In words: ITC; 25 C, binding buffer, 1 mM Mg2+; Binding Buffer: 50 mM Tris-HCl, 100 mM NaCl, 1 mM MgCl2, 1 M DTT (so in the source), pH not stated; ITC and CD at 25 C. In general terms: Isothermal titration calorimetry measures the heat released or taken up as one component is titrated into another.

B1: 40mer AS2-3 (structured_DNA)
DNA: TACAGGCAGTAAGGCCGTGTCATCAGGATGGGCACTTTCC
On to B1, for which the binding result with human thrombin [1] is reported as “no binding”.

B2: AS2-3 (61mer; identical to AS7-36 and AS7-83) (structured_DNA)
DNA: TACAGGCAGTAAGGCCGTGTCATCAGGATGGGCACTTTCCTAGGGCAGGTTAGCAACAGGA
With B2, the equilibrium dissociation constant (Kd) (in general, a measure of binding affinity in units of concentration) in the series with human thrombin [2] was determined as 3.36 µM. That is a single-digit micromolar value.

For the origin of these results see publication PMC9917220.
